According to patent US11045546 (CYTODYN, dated 2021):

Target: C-C chemokine receptor 5 (CCR5) (human, UniProt P51681 1-352)
Assay: cell-based or functional assay

Chain of C-C chemokine receptor 5 (CCR5) (P51681 whole entry): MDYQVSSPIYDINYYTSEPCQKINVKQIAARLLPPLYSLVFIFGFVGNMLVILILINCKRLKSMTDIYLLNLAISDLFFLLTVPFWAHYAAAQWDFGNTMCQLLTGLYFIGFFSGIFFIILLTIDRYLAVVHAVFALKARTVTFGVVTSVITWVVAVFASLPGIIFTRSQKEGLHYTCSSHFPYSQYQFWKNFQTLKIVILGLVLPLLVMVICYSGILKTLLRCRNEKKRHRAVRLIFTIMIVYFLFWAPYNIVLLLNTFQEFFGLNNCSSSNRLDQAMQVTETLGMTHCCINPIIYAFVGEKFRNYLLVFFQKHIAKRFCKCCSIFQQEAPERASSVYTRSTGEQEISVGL

B1: Leronlimab (PRO 140) (antibody, human IgG4, kappa, V domains shown)
VH: EVQLVESGGGLVKPGGSLRLSCAASGYTFSNYWIGWVRQAPGKGLEWIGDIYPGGNYIRNNEKFKDKTTLSADTSKNTAYLQMNSLKTEDTAVYYCGSSFGSNYVFAWFTYWGQGTLVTVSS
VL: DIVMTQSPLSLPVTPGEPASISCRSSQRLLSSYGHTYLHWYLQKPGQSPQLLIYEVSNRFSGVPDRFSGSGSGTDFTLKISRVEAEDVGVYYCSQSTHVPLTFGQGTKVEIKR
inhibition of MIP-1α-induced calcium mobilization, IC50: 21.2 µg/mL
inhibition of MIP-1β-induced calcium mobilization, IC50: 39.6 µg/mL
inhibition of RANTES (CCL5)-induced calcium mobilization, IC50: 59.1 µg/mL
